Laboratory results: PMC5066248

Biological target: His6-GroEL
Assay: cryo-EM structure; His6-GroEL captured from clarified E. coli lysate on Ni2+-activated BSA-PABA-GO-NTA coated lacey carbon 400 mesh grids; single particle analysis of 5363 particles in EMAN 2.1 with imposed D7 symmetry; 8.1 Å (gold standard, 0.143 criteria)

Chain of His6-GroEL (A1AJ51 2-548): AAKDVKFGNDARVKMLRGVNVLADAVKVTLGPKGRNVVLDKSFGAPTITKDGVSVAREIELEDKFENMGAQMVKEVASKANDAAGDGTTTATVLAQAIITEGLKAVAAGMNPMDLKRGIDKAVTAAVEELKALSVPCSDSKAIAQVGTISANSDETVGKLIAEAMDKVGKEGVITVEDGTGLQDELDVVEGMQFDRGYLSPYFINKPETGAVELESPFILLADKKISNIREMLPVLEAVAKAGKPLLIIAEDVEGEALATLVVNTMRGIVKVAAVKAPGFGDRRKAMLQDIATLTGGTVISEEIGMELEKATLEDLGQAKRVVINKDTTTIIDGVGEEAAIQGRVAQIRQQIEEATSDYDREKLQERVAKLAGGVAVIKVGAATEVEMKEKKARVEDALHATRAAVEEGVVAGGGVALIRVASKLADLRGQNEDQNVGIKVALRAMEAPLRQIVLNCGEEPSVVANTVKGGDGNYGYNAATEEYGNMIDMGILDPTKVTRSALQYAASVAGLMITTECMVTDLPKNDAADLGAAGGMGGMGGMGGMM

stoichiometry N: 14
Substance: His6-GroEL (natural protein)
